# From the DeepSol protein solubility set
# Experiment: soluble on expression in E. coli; label from the status in PepcDB or PDB records
row,Sequence,soluble on expression in E. coli
1,MATEVTFFDELKIDNKVDIIGNNVRGELPNIWLQYGQFKLKASGGDGTYSWYSENTSIATVDASGKVTLNGKGSVVIKATSGDKQTVSYTIKAPSYMIKVDKQAYYADAMSICKNLLPSTQTVLSDIYDSWGAANKYSHYSSMNSITAWIKQTSSEQRSGVSSTYNLITQNPLPGVNVNTPNVYAVCVE,soluble
2,MGRSADSFDRALWWGASDEPALAAPPLRGTTDTDVAIVGGGFTGLVTALHLAEAGLAPLVLEARHVGFGASGRNGGQVIPGLKYDPEALLQKFGPDRGRALIDLVGGAADGVFDLIERHRIRCAPRRAGWIQAAHSERALPAVLNRARQWQERGVGVSILSRDEIAARTGTSLYHGGWHDPRAGGLNPLAYARGLGRAAIAAGAHLFEESPALSLIRKGAGWEIRTPEGLVRANRVLIATNAYGEGLLPGLAQSILPVQSMLVATAPLPEDLRARLMPGGVVLSETRKLAFYMRQSDDGRLVLGGRGAVGPMEDGRLMAALEAGLARIFPEAARFGIAQRWSGQLALTLDGLPHLHAPEPGLQVLLGYNGRGIALATALGRMVANHLASGEEPVFPVTPIRPLAWHRLREPVMNAGIRWYWLKDRMGFASLEHHHHHH,not soluble
3,GPGSMAHSLTWKLLSPEQTHECLTAPDVPSIRSVLKKIDEACDGKLIGAAKYNEGKVMIVLDMLAHLILFCKSRSMSPEKVSTLVGIVIKIHEESMSGGYTRAKSYHLMRDLMIKHSVPRPPFSCGVFTVRDAQEIDEYMLRSYYRHYKMYFYAFVPRQVMNVRCLDVTHIHQVPPVGLPSLSTAVVESEWRTKVEEQRREAEEQAMQEGEIASDAYEEERMRNRLLADPHYSDGIREQLECIKKEVSSKAVGRLDEIEMRLQEIEKKVAESFARSDSKQGRRKK,soluble
4,MVLAPFFEKAPSLIIAPDGSVLFECICNANPQPTVKWFLKDKELTGDRYVSKIKKMVGKFTVTLHIKNPTQEDQGVYKVTATNTHGSHSVEQQYIYKCTGKEVFKTLD,soluble
5,MADDPHVLAFLARVHQGRRDRVEDHLHEHFIRERNLHQRPQFPPLQLVPVQAEHEYEHPFPLVDVFKFSLQGDSVKTASSSWQGLQWKVKCSIYNLPGELLATRVSVDFFNLMDRVFKATVKYEMNEKFAAANEFAEVVIDSNHSTIVFPETGAFAPGRLVDGMLPTEIAVKIKLEHAEIVDQFSYNNQSWVMGTRWVRYGDECSVRMNFDVLKNLNPCHDKFFDDLREQVLSPKEARAFFDFASAIFNRSFMGLDLFHESVRNGLKFGFTTNWDSLNTVDSEFDFNSRTAFPGYQNVLYEQPSELTSISNRETAGMCQIFKLNLDPSDVTTRFQVASMNNVKSHTSQFTFYLENSPNGYLLIAGGCFQMESRQLVNLKLTLFDSGVSCRNIQTFRILHKEQSTIKVVIALLDDDKMEKMSRGKLLLNFQMHMNGTISNVVRNFEDQTKRIGDFAMPGLVTGYINCRDKKRIGVCKEHLANNSEHLNMLFFNTVFEDCGKNEITVNEDSDIVLDALDIIYHRSLAIFPAQINRVLDLAGYWLSATMHRFMEIAILHSTHISDSAKLELAAEHHFDIIKYVARHPRYASTYHLSLTDEEIMQVRIPADNEVDGGTGGRPRRVEDLMDLEEQQE,not soluble
6,MYLKETLDQFTSINNILKLLKKSPGFNKYCIQERLPKETVITSDKRRKYIYIIEDGFMKLVFEGTNKHNFSYILQKGAFPHLPVYTEDIPKHMMLIALTDVVWWKIEFQFFKEMMELEDPRNYIMLHQLAETRRRLYIIAVQEKLSSRESIYFSLNTMIDYGLRVSEKAVELPKFLTYQILADNSNTSKSYTSKVLSNLREKGILESQKKPWRINDVQKLQELIDAEALLAIL,not soluble
7,MGSDKIHHHHHHLIRGLYTAGAGMMLQMARQDVVANNLANVNTSGFKKNTAVAKAFPDMLISRLGECKEDKQGQLKVQSPVVIGRLGTGASISGIYTDFDNNNLKKTDSPCDLAITGAGYFVVQTPEGQRFTRCGEFKINSEGILTTNSGYPVLDSNDSPITIEGEFLIDEQGNINVDGENITRLKIVNFNDLQILERLGDNLLNSPEEPYVMERPEMLQGYIEQSNVNAVKEMVTLISVVRAYESLQKMVQAEDEIMGQAIDKVGSIN,not soluble
8,MTVIALRHLGPAERKSFARHLAGGDFPGKGAWDDGTVVLDRVLDGLGDEAGRALIEGALAKASRMVVVTLGGEAAARWTPEVLGPAFVYLLGEAIDADSPAVALAFLDGPGRPRLFAPRFSVMVPVYNHRDLIGACLDSIAAQSWPLWEAVVVDDGSTDGVATLLTERAAADPRLRWSSQANGGTGAALNACLAMAREEWIAWLSSDDLFAPDKLAAHAALLRRDGLAPAFHHTAVIRRNDAGEEQVVAPLGPLMTGSAGLRRLAMTSVNLIQGISIVVHRDLFAQTAGFDPRNRFTQDYAMWVRLMERTDPVYLPLVTAVTRVGAAQTTARHYQRTRAEAIAAILGALRDFSAGAPDDREARLEAVAALVMLASSPHGFLARYGLQGWYVARAMGLAAEAKVLGATFADVSARLGPWSVGHIHDPQAMGHLAMIESVFREDKAAAPIDPFRILTRMLISPTIPADLAEAITGFLRGDLPQPLEHHHHHH,not soluble
9,GKKCFLTVRGNFSWNEDKIIENDDPRVQYPWMEKRGTNVNGRWGWIAEGLFTSEEEIMDHAKQFGEGHPGQISKVGDIKYKDLNGDGVIDDYDKCLIGQGDVPKIYYGFGADLQLGDFSVGALFAGNAKADRCLGGNAMYPFNDGSGITNLFANITDRWSADNPTNQDVFYPRLHHGNNANQNNMKTSTWWQKDVSFLRLKQLTIAYQLPKKLINQTFLKSARIYVMGTNLLTFSKFKLWDPELNTNNGTAYPNVRTYSVGVNVSF,not soluble
10,MGSDKIHHHHHHMSIDFYNQNASSFYASTVEVDSSSLLEQFTPYLPKGGSVLDAGCGSGRDSKRLIELGFHVDAFDASAALATLAQQLLGKPVRVATFMQFTSTLQYDGIWACASLLHVSKASLPDAFAHLASMLKSGGAFYCSFKYGQGEVERDGRSFTHCDEALLAELLTGSPLVIDKVWLTTDLRVGRENEQWLNAVLLKR,not soluble
11,MGSDKIHHHHHHMDKLSFNIFPNVNFIDLCMYQFGHEQCEPGHSFGPATRNHYLFHYVLSGTGTLMADNAKGITQTYNIKSGQGFLIFPGQINTYIADDKLPWEYIWIEFDGLRVKEALTTTELTKNNPVYHTHSKDIREKLVEEMLYITRHPSESPYHLIGHMYLFLDYLMQSAKSSKLVPGGKMSDFYIKEAMNYIEQNFQNDISIEDIAGVCGINRSYLGKIFKNSVGHSPQEFLMNYRMIKATELLKLTSLSIADVGSAVGYENQLHFSRAFKNIYGVAPREWRNEHK,not soluble
12,MSLKPRVAVIGSGSIGLLLYAYLKLANWPALLVTNRPEQADHLNKEGLTFVAKSGEHQPISVTATPLSSFSAEEAEVGFITVKSFAVKALLPQLQRKKWDGLVFFQNGMTHLEILRQIPARAICCGIVEIGAKRESDVRVQHTGDGAIWIGDMVGDSKNFDPMWACLHNAGLKAQKVTNWQDKMERKLIANAAINPLTGLFRVKNGALIENQLFSLLLKELVKEACVTLGREREVDEHLAYTRAICDKTANNLSSMYMDLTHHRRTEIESITGYLIKEAAKKGIEIPNTSFVYHAVMGMDEEGRKVREGHHHHHH,soluble
13,MGSDKIHHHHHHMSIPLAFIICTEPGRLESQSLMLASSIRKFCGNLKDTPIYSFHPRVGEPISHQTQEAFAALQVIHQQIPINQEFHEYYLANKPLVCAYAEQNIDAEILVFLDSDKCLFAEPTEFLLPENCNVRVRPEYGQGIGSTGSQDPQEWYWQRLYQVLGVKREIFVNTPIGNKRIRAYWNSGLVAVRRSAGIFTAWKENFTKVMHLDITPPQGIYFVEQSVLSVTLCALVDNIEHFSLNYSYPLPLHNRLSPELRLQDWDDITSIHYFNLFFYNDWNTQIKKLKKFNITSDKYKWLSQEVVRLNMSRTSVLHRYMLAIRRIEQKLQKFNIKINLSSLIEKTAKF,not soluble
14,MRALREKTSMSQGVEFNRLMLDMRAMQMDAMSAPKPVSGAQEAGASSFADMLGQAVNKVAQTQQASSQLANAFEVGKSGIDLTDVMISSQKASVSFQALTQVRNKLVQAYQDIMQMPV,not soluble
15,MASGQFVNKLQEEVICPICLDILQKPVTIDCGHNFCLKCITQIGETSCGFFKCPLCKTSVRKNAIR,soluble
16,MFASKDINDLIAIVAGLRNRESGCIWNIKQTFESLIPYMLEEVYEVIDAIERKNRTDLCDELGDLLLQVVYHATIAQEEGSFTFEDVVYAITSKMIRRHPHVFGNAEQKKRGFIEDEWERIKKTERAEQNKCYEAVNLPTNSTTSILEKIKKLQPAHQEALALQKAAATVGFNWHESHKFFAKIEEEINELKDAIKNDKTSDIEAEFGDLYFSLLNLALHLNIDSQKALKKTNTKFRNRFTYIEESLYTQSKTLANTSLKEMESLWNKAKNKK,not soluble
17,MTIQQAMHQMPGKPGRDAIAEGETPRKASSDEAGCPRNDSTPTGSGLLQAALTRDNLQLAFKQVRANKGAAGVDGLGIVETAEHLKTAWPGIRAQLLAGTYRPDPVRRVLIPKPGGGERKLGIPTVTDRLIQQALLQVLQPLLDPDFSNHSYGFRPERSAHQAVLAAQQYIHSGRQIVVDVDLEQFFDCVEHDVLIARLGRKVKDRDVLRLIRAYLNSGALIEGMVMTSTRGTPQGGPLSPLLANVVLDEVDKELERRGHCFVRYADDANVYVRSPKAGQRVMALLRRLYGRLGLRVNESKSAVASAFGRKFLGFSFWQSPKGEVKRRVALKALQVFKHRIRGLTPRSGGRSLPQVVENLRPYLLGWKAYFGLSQAPGLWKSLDGWIRRRLRAIQLKQWKTGKTTYRELRKLGANSDLAAAIASDSHRTWHNSAGLIHGVLTVAWFDRLGLPRLYLEHHHHHH,not soluble
18,MTTAHISGDWRTRYQHVTSFYFKTNHKVWCKVILSLLHTHIPMIIFIDMKGVNMDLIIQTFPLDGKTLYYVQCPVCKNNRILNSGANVSRIISDDTFRKLCGCTCDVKPATSKVEAPKQVKKAAVKKEAAPKRTGKVLTAVINGKEMTVKEIAEAYDISTSTVRQRINAGKPESEIIAPTKKK,not soluble
19,MGSDKIHHHHHHMKCPTETLPMMRCNQILDAAERLIESQGIVSFKFSQLAKEVGCSTGTLYKFFERKEDVLVCLFLRSATSNHLPIFIDKHPELSELEKVLLPVLFTFETISRSKSFFTLRSVSVNTMVWQLASDEKVERFKKRINAFWGWFTDSLHAAVEQGELQATPLQIKELVQGLTFYLTGSLTQFESQLIAPEYLSNRRETCYRHLAKLMGQYKWNQALTPELFDSLEARTKAFFDQHYRDHMTCAACSALSGVNLKDRPACVRQAYQ,not soluble
20,MGNCESRELVAQAKQNKIINTELDKAKKTDENIIKLLLLGAGESGKSTVLKQMKIIHNSGFSQEEISNKRNVVCANTVQAMGALLDGMKQLQFDFSTRVCNAHEKLIRETLNDKAEYGPFSDAMFNALTELWADKGVQCAYDKREFFYLHDSAKYFFDAIARVHTPNYVPTENDILHTRVPTMGVIEVNFTIKGKFFRVFDVGGQRSQRKKWIHCFDDAKAMIYVASLSEYDQVLLEDNTTNRMHESIQLFKQVINNKYFVNTSVILFLNKIDLFEEKIVTKKRSLGIAFESFSGPSQDLNAAVAFVEKKYRSMAENKEKNIYCHHTCATDTQQVQYVLDAVLDTILSTKLKGCGLY,not soluble
21,MGSDKIHHHHHHMRGRGMDIFISKKMRNFILLAQTNNIARAAEKIHMTASPFGKSIAALEEQIGYTLFTRKDNNISLNKAGQELYQKLFPVYQRLSAIDNEIHNSGRRSREIVIGIDNTYPTIIFDQLISLGDKYEGVTAQPVEFSENGVIDNLFDRQLDFIISPQHVSARVQELENLTISELPPLRLGFLVSRRYEERQEQELLQELPWLQMRFQNRANFEAMIDANMRPCGINPTIIYRPYSFMAKISAVERGHFLTVIPHFAWRLVNPATLKYFDAPHRPMYMQEYLYSIRNHRYTATMLQHIAEDRDGTSH,not soluble
